Holding throughout (experiment): FRET or BRET; BRET saturation in live HEK293T cells; fixed Rluc donor plasmid (10 ng), increasing eYFP acceptor plasmid (0 to 500 ng); coelenterazine H; BRET50 as relative affinity
What all share (conditions): partners not purified
On the technique in general: In BRET a luciferase serves as donor, and the signal depends on an acceptor being close.

Test [1] addresses T1, Rluc-Vpr (R80A) (HIV-1, UniProt P05928 1-96, R80A).
T1 construct: BRET donor; also called the R80A mutant; pCDNA3.1-Rluc-Vpr (R80A); source: HEK293T, transfected, in live cells; not shown: renilla luciferase (Rluc), N-terminal, kept
T1 sequence: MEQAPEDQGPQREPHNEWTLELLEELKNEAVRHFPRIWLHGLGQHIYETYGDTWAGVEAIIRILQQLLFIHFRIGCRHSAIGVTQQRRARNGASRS

The target of test [2] is T2, Rluc-Vpr (Q65R) (HIV-1, UniProt P05928 1-96, Q65R).
T2 construct: BRET donor; also called the Q65R mutant; pCDNA3.1-Rluc-Vpr (Q65R); source: HEK293T, transfected, in live cells; not shown: renilla luciferase (Rluc), N-terminal, kept
T2 sequence: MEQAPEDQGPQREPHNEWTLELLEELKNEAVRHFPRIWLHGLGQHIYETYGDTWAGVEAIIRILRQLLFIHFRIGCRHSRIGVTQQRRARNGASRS

The target in test [3] is T3, Rluc-Vpr (WT) (HIV-1, UniProt P05928 1-96).
T3 construct: BRET donor; also called pCDNA3.1-Rluc-Vpr (WT); source: HEK293T, transfected, in live cells; not shown: renilla luciferase (Rluc), N-terminal, kept
T3 sequence: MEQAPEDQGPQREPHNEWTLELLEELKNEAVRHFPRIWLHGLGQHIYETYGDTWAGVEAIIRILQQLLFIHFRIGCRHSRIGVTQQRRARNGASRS

B1: eYFP-Vpr (WT) (natural protein)
chain: MEQAPEDQGPQREPHNEWTLELLEELKNEAVRHFPRIWLHGLGQHIYETYGDTWAGVEAIIRILQQLLFIHFRIGCRHSRIGVTQQRRARNGASRS
notes: BRET acceptor; also called wild type eYFP-Vpr; pCDNA3.1-eYFP-Vpr(WT); source: HEK293T, transfected, in live cells; not shown: eYFP, N-terminal, kept
As to B1, the BRET50 in test [1] worked out at 0.326 fluorescence/luminescence; in test [2] it was 0.791 fluorescence/luminescence; in test [3], 0.397 fluorescence/luminescence.

These data come from publication PMC2932712, “Formation of Mobile Chromatin-Associated Nuclear Foci Containing HIV-1 Vpr and VPRBP Is Critical for the Induction of G2 Cell Cycle Arrest” (PLoS Pathogens, 2010).
